# Results reported in PMC6501848 (Nature cell biology, 2019).
# B1: INF2-Cterm labeled with tetramethylrhodamine (domain or fragment)
# chain: not shown
# modifications: tetramethylrhodamine-succinimide (TMR) label
# B2: human CAP2 with C-terminal GFP and Strep-tag II (natural protein)
# chain: MANMQGLVERLERAVSRLESLSAESHRPPGNCGEVNGVIAGVAPSVEAFDKLMDSMVAEFLKNSRILAGDVETHAEMVHSAFQAQRAFLLMASQYQQPHENDVAALLKPISEKIQEIQTFRERNRGSNMFNHLSAVSESIPALGWIAVSPKPGPYVKEMNDAATFYTNRVLKDYKHSDLRHVDWVKSYLNIWSELQAYIKEHHTTGLTWSKTGPVASTVSAFSVLSSGPGLPPPPPPLPPPGPPPLFENEGKKEESSPSRSALFAQLNQGEAITKGLRHVTDDQKTYKNPSLRAQGGQTQSPTKSHTPSPTSPKSYPSQKHAPVLELEGKKWRVEYQEDRNDLVISETELKQVAYIFKCEKSTIQIKGKVNSIIIDNCKKLGLVFDNVVGIVEVINSQDIQIQVMGRVPTISINKTEGCHIYLSEDALDCEIVSAKSSEMNILIPQDGDYREFPIPEQFKTAWDGSKLITEPAEIMA
# Key:
# [1] = target: INF2-Nterm (human, UniProt Q27J81 1-420); assay: fluorescence polarisation
# [2] = target: chicken skeletal muscle actin (chicken, UniProt P68139 1-377); assay: pull-down
# [3] = target: rabbit skeletal muscle actin (rabbit, UniProt P68135 1-377); assay: pull-down
# [4] = target: fluorescently-labeled rabbit skeletal muscle actin (TMR-actin) (rabbit, UniProt P68135 1-377, TAMRA label (TAMRA NHS ester)); assay: pull-down
# [5] = target: the molecule itself; assay: AUC
# Sequence of INF2-Nterm (Q27J81 1-420): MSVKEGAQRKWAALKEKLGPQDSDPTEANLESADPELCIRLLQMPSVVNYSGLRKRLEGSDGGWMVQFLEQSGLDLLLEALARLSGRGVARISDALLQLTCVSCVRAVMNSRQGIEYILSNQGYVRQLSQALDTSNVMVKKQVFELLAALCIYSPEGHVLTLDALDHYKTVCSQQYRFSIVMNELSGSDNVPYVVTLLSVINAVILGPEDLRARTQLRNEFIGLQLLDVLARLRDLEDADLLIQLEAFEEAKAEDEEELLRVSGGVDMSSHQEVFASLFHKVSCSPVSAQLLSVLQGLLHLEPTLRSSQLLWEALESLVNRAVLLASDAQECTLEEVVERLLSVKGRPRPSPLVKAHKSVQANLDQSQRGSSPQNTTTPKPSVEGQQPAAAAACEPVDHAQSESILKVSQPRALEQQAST
Binder,Kd [1] [µM],binding result [2],binding result [3],binding result [4],stoichiometry N [5]
B1,~28,–,–,–,–
B2,–,binds,binds,binds,6
